Test results: paper PMC3410417 (The Journal of Cell Biology, 2012)

Target: Myc-mGlu5a-Rluc8 (UniProt P31424-2 21-1171)
Test: FRET or BRET

B1: YFP-Homer3 (natural protein, UniProt Q9Z2X5 1-358, looked up)
chain: MSTAREQPIFSTRAHVFQIDPATKRNWIPAGKHALTVSYFYDATRNVYRIISIGGAKAIINSTVTPNMTFTKTSQKFGQWADSRANTVYGLGFGSEQQLTQFAEKFQEVKEAARLAREKSQDGGELTSTALAMASHQVPPSPLVSTNGPEEKLFRSQSADAPGPTERERLKKMLSEGSVGEVQWEAEFFALQDSNQRLAGALREANAAATQWRQQLEVQRAEAEHLRQRVAELEAQVAAEPVRAGEKEATSQSVEQLEARVQTKDQEIQTLKNQSTGPREAPDTAEREETQQQVQDLETRNAELEQQLRAMESNLEEARAERERARAEVGRAAQLLDVRLFELSELREGLARLAEAAP
BRET ratio in the spine before TAT-Homer1a (% of mean BRET in the shaft): 364%
